Measurements as given in paper PMC6077248.

Target: Venus-Gβ2γ7 (Venus 156-239-Gβ2 with Venus 1-155-Gγ7), P62879-1;O60262
Test: BRET (suppression of GRK3ct-Gβ2γ7 BRET by competing Gαolf)
Details: chain shown with the change; HEK293T/17 cells; parent: est. 100; read off a plot

percent of parent: 29%
B1: G protein α subunit Gαolf, wild type, P38405 P102_V104del (protein)
chain: MGCLGGNSKTTEDQGVDEKERREANKKIEKQLQKERLAYKATHRLLLLGAGESGKSTIVKQMRILHVNGFNPEEKKQKILDIRKNVKDAIVTIVSAMSTIIPLANPENQFRSDYIKSIAPITDFEYSQEFFDHVKKLWDDEGVKACFERSNEYQLIDCAQYFLERIDSVSLVDYTPTDQDLLRCRVLTSGIFETRFQVDKVNFHMFDVGGQRDERRKWIQCFNDVTAIIYVAACSSYNMVIREDNNTNRLRESLDLFESIWNNRWLRTISIILFLNKQDMLAEKVLAGKSKIEDYFPEYANYTVPEDATPDAGEDPKVTRAKFFIRDLFLRISTATGDGKHYCYPHFTCAVDTENIRRVFNDCRDIIQRMHLKQYELL
